Test results from US20140287419A1, “Compositions Having Dicamba Decarboxylase Activity and Methods of Use” (priority 2013, published 2014).

B1: SEQ ID NO:117: Design variant of SEQ ID NO: 95 (protein)
chain: MAKKPRIDMHSHFFPRISEQEAAKFDANHAPWLQVSAKGDTGSIMMGKNNFRPVYQALWDPAFRIEEMDAQGVDVQVTCATPVMFGYTWEANKAAQWAERMNDFALEFAAHNPQRIKVLAQVPLQDLDLACKEASRAVAAGHLGIQIGNHLGDKDLDDATLEAFLTHCANEDIPILVHPWDMMGGQRMKKWMLPVLVAAPAEVQLAILSLILSGAFERIPKSLKICFAGGGGSFAFLLGIVDLAWRHRDIVREDCPRPPSEYVDRFFVDSLVFNPGALELLVSVMGEDRVMLGSDYPFPTGEQKIGGLVLSSNLGESAKDKIISGNASKFFNINV
modifications: Dicamba decarboxylase variant clone DC.5.008
B2: SEQ ID NO:120: Design variant of SEQ ID NO: 100 (protein)
chain: MAIIDCHGHYTTTPKGVETYRNAQKAAVAKDPSFKYEKGQVVVSDDEIRESIENNQLKMQRERGTDLTIFSPRSTAGGHHIGNEYTSQFWTEHQNDLIRRVCDLFPKNFAPVAQLPQSPGVDPAKSVPEIVRTVEQMGFIGINLNPDPSGGYWKDTSLADRAFYPIYEKMVEYDIPAMIHPRNACNDCFHTTGSHALGADTTGFQQLIMSDVFKDFPSLKIIIPHGGGAVPYHWGRFRGLMQDQGYAPLEESALKNIYFDTCVYHQRGIDLLLDIVPTQNILFASEMIGAVRGIDAETGHNFDDTKRYIDNNTALNAEEKAMIFEGNARRVFSRLKTD
modifications: Dicamba decarboxylase variant clone DC.12.002
B3: SEQ ID NO:118: Design variant of SEQ ID NO: 95 (protein)
chain: MAKKPRIDMHSHFFPRISEQEAAKFDANHAPWLQVSAKGDTGSIMMGKNNFQPVYQALWDPAFRIEEMDAQGVDVQVTCATPVMFGYTWEANKAAQWAERMNDFALEFAAHNPQRIKVLAQVPLQDLDLACKEASRAVAAGHLGIQIGNHLGDKDLDDATLEAFLTHCANEDIPILVHGTDMMGGQRMKKWGLPWLVALAAEVQLAILSLILSGAFERIPKSLKICFSHGGGSFAFLLGLVDEAWRHVDIVREDCPRPPSEYVDRFFVDSVGNPGALELLVSVMGEDRVMLGSDYPHTTGEQKIGGLVLSSNLGESAKDKIISGNASKFFNINV
modifications: Dicamba decarboxylase variant clone DC.5.033
B4: SEQ ID NO:119: Design variant of SEQ ID NO: 95 (protein)
chain: MAKKPRIDMHSHFFPRISEQEAAKFDANHAPWLQVSAKGDTGSIMMGKNNFQPVYQALWDPAFRIEEMDAQGVDVQVTCATPVMFGYTWEANKAAQWAERMNDFALEFAAHNPQRIKVLAQVPLQDLDLACKEASRAVAAGHLGIQIGNHLGDKDLDDATLEAFLTHCANEDIPILVHGWDMMGGQRMKKWGLYWLVAHHAEVQLAILSLILSGAFERIPKSLKICFSHGGGSFAFTLGWVDEAWRHVDIVREDCPRPPSEYVDRFFVDSVGNPGALELLVSVMGEDRVMLGSDYPLTTGEQKIGGLVLSSNLGESAKDKIISGNASKFFNINV
modifications: Dicamba decarboxylase variant cloneDC.5.034
B5: V235I: point mutation V235I of SEQ ID NO:109 (protein)
chain: MAQGKVALEEHFAIPETLQDSAGFVPGDYWKELQHRLLDIQDTRLKLMDAHGIETMILSLNAPAVQAIPDRRKAIEIARRANDVLAEECAKRPDRFLAFAALPLQDPDAATEELQRCVNDLGFVGALVNGFSQEGDGQTPLYYDLPQYRPFWGEVEKLDVPFYLHPRNPLPQDSRIYDGHPWLLGPTWAFAQETAVHALRLMASGLFDEHPRLNIILGHMGEGLPYMMWRIDHRIAWVKLPPRYPAKRRFMDYFNENFHITTSGNFRTQTLIDAILEIGADRILFSTDWPFENIDHASDWFNATSIAEADRVKIGRTNARRLFKLDGA
modifications: Dicamba decarboxylase variant clone DC.4.032
B6: L240A: point mutation L240A of SEQ ID NO:109 (protein)
chain: MAQGKVALEEHFAIPETLQDSAGFVPGDYWKELQHRLLDIQDTRLKLMDAHGIETMILSLNAPAVQAIPDRRKAIEIARRANDVLAEECAKRPDRFLAFAALPLQDPDAATEELQRCVNDLGFVGALVNGFSQEGDGQTPLYYDLPQYRPFWGEVEKLDVPFYLHPRNPLPQDSRIYDGHPWLLGPTWAFAQETAVHALRLMASGLFDEHPRLNIILGHMGEGLPYMMWRIDHRVAWVKAPPRYPAKRRFMDYFNENFHITTSGNFRTQTLIDAILEIGADRILFSTDWPFENIDHASDWFNATSIAEADRVKIGRTNARRLFKLDGA
modifications: Dicamba decarboxylase variant clone DC.4.032
B7: L240D: point mutation L240D of SEQ ID NO:109 (protein)
chain: MAQGKVALEEHFAIPETLQDSAGFVPGDYWKELQHRLLDIQDTRLKLMDAHGIETMILSLNAPAVQAIPDRRKAIEIARRANDVLAEECAKRPDRFLAFAALPLQDPDAATEELQRCVNDLGFVGALVNGFSQEGDGQTPLYYDLPQYRPFWGEVEKLDVPFYLHPRNPLPQDSRIYDGHPWLLGPTWAFAQETAVHALRLMASGLFDEHPRLNIILGHMGEGLPYMMWRIDHRVAWVKDPPRYPAKRRFMDYFNENFHITTSGNFRTQTLIDAILEIGADRILFSTDWPFENIDHASDWFNATSIAEADRVKIGRTNARRLFKLDGA
modifications: Dicamba decarboxylase variant clone DC.4.032

Legend:
[1] = Detection of 2,5-DCA product by toluene capture or head-space GC/MS; type: biochemical; details: purified protein, toluene capturing
Method: Alternatively, dicamba decarboxylase activity can be monitored by measuring decarboxylation products other than CO2 using product detection methods. The decarboxylation product of dicamba, 2,5-dichloro anisole or 2,5-DCA (FIG. 1C), is a volatile compound with a flash point of 21° C. To capture this volatile compound for detection, 140 ul of toluene solution is added on top of 1 ml reaction mixture to form a trapping layer in a 1.5 ml eppendorf tube. […] The reaction is kept still at room temperature overnight before being vortex mixed and centrifuged at 14,000 rpm for 15 minutes. The top toluene phase is carefully removed using a micropipette and transferred into a 12×32 mm polypropylene vial (Vial 11 mm) from MicroLiter Analytical Supplies, Inc. (catalog number 11-5300-100). The vial is sealed with Crimp seal (11 mm with FEP/Nat Rubber) from MicroLiter Analytical Supplies, Inc. (catalog number 11-0020A) using a E-Z Crimper™ 11 mm from Wheaton Inc. 1 ul of the toluene mixture is taken from the sealed vials and injected in splitless mode into a GC/MS system for sample analysis (Agilent GC/MS system with a 6890A GC, a 5973N MSD and a CTC CombiPAL auto-sampler or with a 7890A GC, a 5975C MSD and an Agilent GC Sampler 80 auto-sampler). The GC parameters are: Agilent DB-5MS column (30 m length, 0.25 mm diameter, 0.25 um film) or equivalent; The GC inlet temperature, 250° C.; Carry gas, helium in constant flow mode (1.2 mL/min); The GC oven temperature program, initial temperature at 70° C. for 1 min, ramping to 200° C. at 15° C./min, and then ramping to 250° C. at 30° C./min. MS data acquisition is done in SIM (selected ion monitoring) mode, monitoring the positive ion at M/Z 176 for the molecular ion of […]. The solvent delay for MS acquisition is set at 4 min. Another method for detection of 2,5-DCA is a head-space GC/MS method. Briefly, reaction mixtures in 500 ul reaction volume are prepared in 1.5 ml×32 mm glass vials (Microliter Analytical Supplies, Cat#11-1200) for head space analysis. Glass vials are sealed with magnetic cap from MicroLiter Analytical Supplies, Inc. (catalog number 11-0030AT) using a E-Z Crimper™ 11 mm from Wheaton Industries Inc. The reaction is carried out at room temperature for various amount of time and stopped by heating at 95° C. for 5 min. The reaction vial is transferred to a agitator for incubation at 80° C. for 5 min at 500 rpm. With a syringe preheated at 80° C., 1000 uL of head space is injected with sample fill speed at 100 uL/sec. GC/MS parameters for headspace analysis are the same as for liquid sample analysis.

[2] = Detection of 2,5-DCP product by GC/MS; type: biochemical; details: purified protein
Method: The decarboxylated and demethylated product of dicamba, 2,5-dichloro phenol or 2,5-DCP (FIG. 1E) is measured using a GC/MS analytical procedure with either liquid injection after liquid/liquid extraction using toluene as the extraction solvent or gas injection using head space method. The head space sample analysis is carried out on an Agilent GC/MS system with a 6890A GC, a 5973N MSD and a CTC CombiPAL auto-sampler or with a 7890A GC, a 5975C MSD and an Agilent GC Sampler 80 auto-sampler with Phenomenex ZB-MultiResidue-1 column (30 m length, 0.25 mm diameter, 0.25 um film) or equivalent. GC/MS parameters are: GC inlet temperature, 200° C.; Carry gas, helium in constant flow mode (1.2 mL/min); Oven temperature program, 70° C. for 1 min and then ramp to 275° C. at 40° C./min. […] The reaction vial is transferred to a agitator for incubation at 90° C. for 4 min at 500 rpm. With a syringe preheated at 110° C., 1000 uL of head space is injected with sample fill speed at 100 uL/sec. A 2-mm diameter liner is used in sample inlet. The MS data acquisition is done in SIM (selected ion monitoring) mode. The positive ion at M/Z 162 for the molecular ion of 2,-5-DCP is monitored at retention time of 4.06 min. Solvent delay for MS acquisition is set at 3 min. GC/MS parameters for liquid sample analysis are the same as those for head space analysis, except that the volume of liquid injection is 1 uL.

[3] = Detection of 4-chloro-3-methoxy phenol product by LC-MS/MS; type: biochemical; details: purified protein
Method: The decarboxylated and chloro hydrolyzed product, 4-chloro-3-methoxy phenol (FIG. 1D), is measured using a LC-MS/MS analytical procedure. […] 10 ul is removed from the reaction mixture and mixed with 90 ul pre-chilled methanol followed by centrifugation at 14,000 rpm for 15 min at 4° C. 10 ul of the supernatant is then transferred into 170 ul ddH2O to achieve 5% methanol solution for injection. 50 ul of the prepared sample is injected into a 4000 Q Trap LC-MS/MS system for sample analysis. LC-MS/MS parameters are: Mobile Phase A, 2 mM ammonium acetate in water; Mobile Phase B, 2 mM ammonium acetate in methanol; Column, Aquasil, 100×2.1 mm, 3 μm, C18 column; Flow Rate, 0.6 ml/min. The MS/MS fragment 157/142 which is common to 4-chloro-3-methoxy phenol, 2-chloro-5-methoxy phenol, and 3-chloro-5-methoxy phenol is monitored at a retention time of 2.88 min.

[4] = Dicamba decarboxylation activity of computationally designed protein variants; details: native protein or designed variant versus parent
[5] = 14C assay with purified protein (14CO2 captured on Ca(OH)2 filter paper); type: biochemical; details: [14C]-carboxyl-labeled dicamba
[6] = Saturation mutagenesis of SEQ ID NO:109, dicamba decarboxylation activity of point mutants
[7] = dicamba decarboxylation activity of point mutants of SEQ ID NO: 109 (NNK saturation mutagenesis), relative to the unchanged template

Molecule	2,5-DCA product [1]	2,5-DCP product [2]	4-chloro-3-methoxy phenol product [3]	Dicamba Decarboxylase Activity [4]	CO2 product [5]	Average Activity (Fold of SEQ ID NO: 109) [6, 7]	Average Activity (Fold of SEQ ID NO: 109) ([6]; dicamba decarboxylation activity of single point mutants of SEQ ID NO:109, relative to unchanged template)
B1	detected	not detected	not detected	have dicamba decarboxylase activity	not detected	–	–
B2	detected	not detected	not detected	have dicamba decarboxylase activity	not detected	–	–
B3	detected	not detected	not detected	have dicamba decarboxylase activity	not detected	–	–
B4	detected	not detected	not detected	have dicamba decarboxylase activity	not detected	–	–
B5	–	–	–	–	–	1.8 Fold of SEQ ID NO: 109	1.8 Fold of SEQ ID NO: 109
B6	–	–	–	–	–	2.3 Fold of SEQ ID NO: 109	–
B7	–	–	–	–	–	2.2 Fold of SEQ ID NO: 109	–
